Measured values reported in patent US12163955B2, “Antibodies to methotrexate and uses thereof” (Ark Diagnostics, Inc., priority 2023, dated 2024).
Where “and” joins values, the source holds several entries; their conditions need not be identical. Identical values can stand only once.

Experiment: Homogeneous enzyme immunoassay calibration curves with antibody clones and DAMP-Y-S-G6PDH conjugate
Format: biochemical
Experimental: MTX antibodies and enzyme conjugates may be advantageously used in accordance with the present disclosure in a homogeneous assay format to detect a MTX analyte in samples. Antibodies may be evaluated by known methods, such as, conjugate inhibition, conjugate modulation, calibration, cross-reactivity and spike-recovery. For these purposes, cloned antibodies (28H3-K1, 32H1-K2, 64H1-K1) is added into the antibody diluent to prepare the antibody reagent. The antibody reagent includes antibody as prepared above, buffer, salts, stabilizers, preservatives, NAD^+, and glucose-6-phosphate. Enzyme conjugate DAMP-Y-S-G6PDH is added into the conjugate diluent to prepare the enzyme conjugate reagent. The enzyme conjugate reagent includes the conjugate, buffer, stabilizers, salts, and preservatives.
A clinical chemistry analyzer useful to evaluate antibodies and enzyme conjugates in a homogeneous enzyme immunoassay format is the Beckman Coulter AU480 (Beckman Coulter, Brea, CA). The Beckman AU480 is an automated biochemistry spectrophotometer analyzer used by medical laboratories to process biological fluid specimens, such as urine, cerebrospinal fluid, oral fluids, plasma and serum. The analyzer is capable of maintaining a constant temperature, pipetting samples, mixing reagents, measuring light absorbance and timing the reaction accurately.
A homogeneous enzyme immunoassay is conducted using a liquid, ready-to-use, two reagent assay as described above. Typically, 2-15 μL MTX analyte-containing sample is incubated with 75-150 μL antibody reagent followed by the addition of the 50-100 μL enzyme conjugate reagent.
The assay is a homogeneous enzyme immunoassay technique used for the analysis of MTX in biological fluids. The assay is based on competition between MTX in the specimen and -MTX or MTX analog (DAMP derivatives of the current invention) labeled with the enzyme glucose-6-phosphate dehydrogenase (G6PDH) for antibody binding sites. Enzyme activity decreases upon binding to the antibody, so the drug concentration in the sample can be measured in terms of enzyme activity. Active enzyme converts nicotinamide adenine dinucleotide (NAD^+) to NADH, resulting in an absorbance change that is measured spectrophotometrically at 340 nm. […] The change in the absorbance at 340 nm can be measured spectrophotometrically and is proportional to the enzyme conjugate activity which in turn is related to analyte concentration (see FIG. 14).
MTX analyte antibodies and enzyme conjugate (DAMP-Y-S-G6PDH) were used in a homogeneous assay format to generate calibration curves using MTX standards as described in Example 12. Antibody reagents were prepared as described in Example 8 through 11 using DAMP-Y-KLH generated rabbit antibodies and cloned antibodies through B-cell. Enzyme conjugate DAMP-Y-S-G6PDH was used to prepare the conjugate reagent. A 6-point calibration curve was generated on the Beckman AU480 clinical chemistry analyzer as described in Examples 12. […]

[1] = antibody 82.5 μL/g, Cals 0.00 μM
[2] = antibody 82.5 μL/g, Cals 0.05 μM
[3] = antibody 82.5 μL/g, Cals 0.15 μM
[4] = antibody 82.5 μL/g, Cals 0.50 μM
[5] = antibody 82.5 μL/g, Cals 1.20 μM
[6] = antibody 90.0 μL/g, Cals 0.00 μM
[7] = antibody 90.0 μL/g, Cals 0.05 μM
[8] = antibody 90.0 μL/g, Cals 0.15 μM
[9] = antibody 90.0 μL/g, Cals 0.50 μM
[10] = antibody 90.0 μL/g, Cals 1.20 μM
[11] = antibody 100.0 μL/g, Cals 0.00 μM
[12] = antibody 100.0 μL/g, Cals 0.05 μM
[13] = antibody 100.0 μL/g, Cals 0.15 μM
[14] = antibody 100.0 μL/g, Cals 0.50 μM
[15] = antibody 100.0 μL/g, Cals 1.20 μM
[16] = antibody 200.0 μL/g, 0.00 to 0.05 μM
[17] = antibody 200.0 μL/g, 0.00 to 1.20 μM
[18] = antibody 200.0 μL/g, 0.05 to 0.15 μM
[19] = antibody 200.0 μL/g, 0.25 to 0.50 μM
[20] = antibody 200.0 μL/g, 0.50 to 1.20 μM
[21] = antibody 200.0 μL/g, Cals 0.00 μM
[22] = antibody 200.0 μL/g, Cals 0.05 μM
[23] = antibody 200.0 μL/g, Cals 0.15 μM
[24] = antibody 200.0 μL/g, Cals 0.50 μM
[25] = antibody 200.0 μL/g, Cals 1.20 μM

B1: 64H1/64K1: rabbit recombinant monoclonal antibody to MTX, VH SEQ ID NO: 17, VL SEQ ID NO: 21 (antibody)
VH: METGLRWLLLVAVLKGVQCQSLEESGGRLVTPGTPMTLTCTASGFSLVKYYMTWVRQAPGKGLEYIGVIWSGGMTYYASWAKGRFTISRTSTTVDLKIISPTTEDTATYFCARERDYFDGYIGNDIWGQGTLVTVSSGQPKAPSVFPLAPCCGDTPSSTVTLGCLVKGYLPEPVTVTWNSGTLTNGVRTFPSVRQSSGLYSLSSVVSVTSSSQPVTCNVAHPATNTKVDKTVAPSTCSKPTCPPPELLGGPSVFIFPPKPKDTLMISRTPEVTCVVVDVSQDDPEVQFTWYINNEQVRTARPPLREQQFNSTIRVVSTLPITHQDWLRGKEFKCKVHNKALPAPIEKTISKARGQPLEPKVYTMGPPREELSSRSVSLTCMINGFYPSDISVEWEKNGKAEDNYKTTPAVLDSDGSYFLYNKLSVPTSEWQRGDVFTCSVMHEALHNHYTQKSISRSPGK
VL: MDTRAPTQLLGLLLLWLPGATFAQVLTQTPSSVSAAVGGTVTINCQSSQSVWSRHLSWFQQKPGQPPKLLIYKASTLASGVPSRFSGSGSGTQFTLTISDVQCDDAATYYCLGGYTCIRDDCRAFGGGTEVVVKGDPVAPTVLIFPPAADQVATGTVTIVCVANKYFPDVTVTWEVDGTTQTTGIENSKTPQNSADCTYNLSSTLTLTSTQYNSHKEYTCKVTQGTTSVVQSFNRGDC
Antibody 82.5 μL/g, 0.00 to 0.05 μM
  Separation: 39.3 ΔmA/min.
Antibody 82.5 μL/g, 0.00 to 1.20 μM
  Separation: 256.1 ΔmA/min.
Antibody 82.5 μL/g, 0.05 to 0.15 μM
  Separation: 76.7 ΔmA/min.
Antibody 82.5 μL/g, 0.25 to 0.50 μM
  Separation: 55.8 ΔmA/min.
Antibody 82.5 μL/g, 0.50 to 1.20 μM
  Separation: 22.6 ΔmA/min.
[1]
  Absorbance: 0.3378 and 0.3384
  Average Rate: 338.10 mA/min
[2]
  Absorbance: 0.3775 and 0.3772
  Average Rate: 377.35 mA/min
[3]
  Absorbance: 0.4548 and 0.4533
  Average Rate: 454.05 mA/min
[4]
  Absorbance: 0.5708 and 0.5725
  Average Rate: 571.65 mA/min
[5]
  Absorbance: 0.5943 and 0.5941
  Average Rate: 594.20 mA/min
Antibody 90.0 μL/g, 0.00 to 0.05 μM
  Separation: 35.3 ΔmA/min.
Antibody 90.0 μL/g, 0.00 to 1.20 μM
  Separation: 256.5 ΔmA/min.
Antibody 90.0 μL/g, 0.05 to 0.15 μM
  Separation: 69.9 ΔmA/min.
Antibody 90.0 μL/g, 0.25 to 0.50 μM
  Separation: 60.8 ΔmA/min.
Antibody 90.0 μL/g, 0.50 to 1.20 μM
  Separation: 30.8 ΔmA/min.
[6]
  Absorbance: 0.3355 and 0.3373
  Average Rate: 336.40 mA/min
[7]
  Absorbance: 0.3723 and 0.3711
  Average Rate: 371.70 mA/min
[8]
  Absorbance: 0.4421 and 0.4412
  Average Rate: 441.65 mA/min
[9]
  Absorbance: 0.5624 and 0.5618
  Average Rate: 562.10 mA/min
[10]
  Absorbance: 0.5925 and 0.5933
  Average Rate: 592.90 mA/min
Antibody 100.0 μL/g, 0.00 to 0.05 μM
  Separation: 28.3 ΔmA/min.
Antibody 100.0 μL/g, 0.00 to 1.20 μM
  Separation: 250.1 ΔmA/min.
Antibody 100.0 μL/g, 0.05 to 0.15 μM
  Separation: 63.1 ΔmA/min.
Antibody 100.0 μL/g, 0.25 to 0.50 μM
  Separation: 72.9 ΔmA/min.
Antibody 100.0 μL/g, 0.50 to 1.20 μM
  Separation: 38.7 ΔmA/min.
[11]
  Absorbance: 0.3401 and 0.3411
  Average Rate: 340.60 mA/min
[12]
  Absorbance: 0.3679 and 0.3698
  Average Rate: 368.85 mA/min
[13]
  Absorbance: 0.4318 and 0.4320
  Average Rate: 431.90 mA/min
[14]
  Absorbance: 0.5529 and 0.5511
  Average Rate: 552.00 mA/min
[15]
  Absorbance: 0.5913 and 0.5901
  Average Rate: 590.70 mA/min

B2: 28H3/28K1: rabbit recombinant monoclonal antibody to MTX, VH SEQ ID NO: 1, VL SEQ ID NO: 5 (antibody)
VH: METGPRWLLLVAVLKGVQCQSLEESGGDLVKPGASLALTCKASGLDFSRSDHWICWVRQAPGKGLESIGCIYIGSGTFVRSGTTYYASWAKGRFTISKTSSTTVTLQMTSLTGADTATYFCARGFYATDGYGGPSYLNLWGQGTLVTVSSGQPKAPSVFPLAPCCGDTPSSTVTLGCLVKGYLPEPVTVTWNSGTLTNGVRTFPSVRQSSGLYSLSSVVSVTSSSQPVTCNVAHPATNTKVDKTVAPSTCSKPTCPPPELLGGPSVFIFPPKPKDTLMISRTPEVTCVVVDVSQDDPEVQFTWYINNEQVRTARPPLREQQFNSTIRVVSTLPITHQDWLRGKEFKCKVHNKALPAPIEKTISKARGQPLEPKVYTMGPPREELSSRSVSLTCMINGFYPSDISVEWEKNGKAEDNYKTTPAVLDSDGSYFLYNKLSVPTSEWQRGDVFTCSVMHEALHNHYTQKSISRSPGK
VL: MDTRAPTQLLGLLLLWLPGARCADIVMTQTPASVEAAVGGTVTIKCQASESISSYCSWFQQKPGQPPKLLIYRASTLESGVPSRFKGSGSGTQFTLTISDLECADAATYYCQSYAYSSPDSYGSTFGGGTEVVVKGDPVAPTVLIFPPAADQVATGTVTIVCVANKYFPDVTVTWEVDGTTQTTGIENSKTPQNSADCTYNLSSTLTLTSTQYNSHKEYTCKVTQGTTSVVQSFNRGDC
[16]
  Separation: 43.2 ΔmA/min.
[17]
  Separation: 157.5 ΔmA/min.
[18]
  Separation: 76.3 ΔmA/min.
[19]
  Separation: 0.2 ΔmA/min.
[20]
  Separation: 1.8 ΔmA/min.
[21]
  Absorbance: 0.4534 and 0.4555
  Average Rate: 454.45 mA/min
[22]
  Absorbance: 0.4989 and 0.4964
  Average Rate: 497.65 mA/min
[23]
  Absorbance: 0.5737 and 0.5742
  Average Rate: 573.95 mA/min
[24]
  Absorbance: 0.6112 and 0.6092
  Average Rate: 610.20 mA/min
[25]
  Absorbance: 0.6095 and 0.6144
  Average Rate: 611.95 mA/min

B3: 32H1/32K2: rabbit recombinant monoclonal antibody to MTX, VH SEQ ID NO: 9, VL SEQ ID NO: 13 (antibody)
VH: METGLRWLLLVAVLKGVQCQSLEESGGDLVKPGASLTLTCTASGLSFSSSDHWICWVRQAPGKGLESVGCIYIGSGTFVSSGTTYFASWAKGRSIISKTSSTTVTLQMTSLTAADTATYFCARGFYYTDGSGGPSYLNLWGQGTLVTVSSGQPKAPSVFPLAPCCGDTPSSTVTLGCLVKGYLPEPVTVTWNSGTLTNGVRTFPSVRQSSGLYSLSSVVSVTSSSQPVTCNVAHPATNTKVDKTVAPSTCSKPTCPPPELLGGPSVFIFPPKPKDTLMISRTPEVTCVVVDVSQDDPEVQFTWYINNEQVRTARPPLREQQFNSTIRVVSTLPITHQDWLRGKEFKCKVHNKALPAPIEKTISKARGQPLEPKVYTMGPPREELSSRSVSLTCMINGFYPSDISVEWEKNGKAEDNYKTTPAVLDSDGSYFLYNKLSVPTSEWQRGDVFTCSVMHEALHNHYTQKSISRSPGK
VL: MDTRAPTQLLGLLLLWLPGARCADIVMTQTPASVEAAVGGTVTIKCQASQTIYSYLSWFQQKPGQPPKLLIYSASTLASGVSSRFKGSRSGTESTLTISDLECADAATYYCQSYMYSSSSSFGSTFGGGTEVVVKGDPVAPTVLIFPPAADQVATGTVTIVCVANKYFPDVTVTWEVDGTTQTTGIENSKTPQNSADCTYNLSSTLTLTSTQYNSHKEYTCKVTQGTTSVVQSFNRGDC
[16]
  Separation: 103.5 ΔmA/min.
[17]
  Separation: 209.7 ΔmA/min.
[18]
  Separation: 105.7 ΔmA/min.
[19]
  Separation: −0.9 ΔmA/min.
[20]
  Separation: 0.3 ΔmA/min.
[21]
  Absorbance: 0.4007 and 0.3982
  Average Rate: 399.45 mA/min
[22]
  Absorbance: 0.5023 and 0.5035
  Average Rate: 502.90 mA/min
[23]
  Absorbance: 0.6091 and 0.6080
  Average Rate: 608.55 mA/min
[24]
  Absorbance: 0.6084 and 0.6093
  Average Rate: 608.85 mA/min
[25]
  Absorbance: 0.6108 and 0.6075
  Average Rate: 609.15 mA/min
